Test results from the nanobody polyreactivity screen of Harvey et al. (2022).

test: yeast display, Sf9 membrane polyspecificity reagent, FACS + sequencing; frameworks hold sequencing errors
Outline: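 Nanobodies from a synthetic yeast display library (Saccharomyces cerevisiae BJ5465), induced 36–48 hours with galactose, were stained 1 hour at 4 °C with 10% biotinylated, detergent-solubilized Sf9 membrane reagent, enriched on streptavidin microbeads, then FACS-sorted. Anti-HA (expression) and streptavidin (reagent binding) fluorescence set low and high (top ~1%) gates. Polyreactivity labels come from the gate of origin. Genes were colony-PCR amplified, MiSeq 2 × 250 sequenced and filtered by CDR length.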

Sequence	polyreactivity (PSR sort gate)
QVQLVESGGGLVQAGGSHRLSCAASGLTFVDNAMGWYRQAPGKDRELVAANSYNGGSTYYADSVKGRFTISRDNAKNTVYLQLHRLKPEDTAVYYCAADISVGRYGDMDDWGQGTQVTVSS	low polyreactivity
QVQLVESGGGLVQAGGSLRLSCAASGRIFYGNTMGWYRQAPGKERELVAAISRSGGSTYYADSVKGRFTISRDNAKNTVYLQMNSLKPEDTAVYYCNARYYRKYDYWGQGTQVTVSS	high polyreactivity
QVQLLESGGGLVQAGGSLRLSCAASGYTFARYAMGWYRQAPGQERELVAAITSSGGSTYYADSVKGRFTISRDNAKNTVYLQMNSLKPEDTAVYYCNARGFQKSDPRGYLILNYWGQGTQVTVSS	high polyreactivity
QVQLVESGGGLVQAGGSLRLSCAASGRTFLTNAMGWYRQAPGKERELVAAITSSGGSTYYADSVKGRFTISRDNAKNTVYLLMNSLKPEDTAVYYCNKKSALYRRYDYWGQGTQVTVSS	low polyreactivity
QVQLVESGGGLVQAGGSLRLSCAASGFIFWWYGMGWYRQSPGKEREFVAAITQSGSTYYADSVKGRFTISRDNAKNTVYLQMNSLKPEDTAVYYCAAVVGRRLYPRYDYWGQGTQVTVSS	high polyreactivity
QVQLVESGGGLVQAGGSLRLSCAASGFIFGINAMGWYRQAPWKERELVAAISTGDRTNYADSVKGRFTISRDNAKNTVYLQMNSLKPEDTAVYYCAKDWRRNRPYEWTYDYWGQGTQVTVSS	low polyreactivity
QVQLVESGGGLVQAGGSLRLSCAASGSTFGYNAMGWYRQAPGKERELVAAISRGGRITYYADSVKGRFTISRDNAKNTVYLQMNSLKQEDTAVYNCAARVQWRGYGYYYWGQGTQVTVSS	high polyreactivity
QVQLVESGGGLVQAGGSLRLSCAASGSIYARNAMGWYRQAPGKERELVAAIRYSGGSTYYADSVKGRFTISRDNAKNTVYLQMNSLKPEDTAVYYCAARWGVFGYYYWGQVTQVTVSS	high polyreactivity
QVQLVESGGGLVQAGGILRLSCASSGRTFKSYTMGWYRQAPGKERELVASISVSGGRTYYADSVKGRFTISRDNAKNTVYLQMNSLKPEDTAVYYCAAYYVHYRPVRGYDYWGQGTEVTVSS	high polyreactivity
QVQLVESGGGLVQAGGSLRLSSAATGGIFYSNAMGWYRQAPGKERELVAAITRSGTSTYYADSVKGRFTISRDNAKNTVYLQMNSLKPEDTAVYYCAADYRYRRSRGHVSKLYYWGQGTQGTVSS	low polyreactivity
QVQLVESGGGLDQAGGRLRLSCAASGSIFSIYAMGRYRQAPGKERELVAAISSGGSTYADSVKGRFTISRDNAKNTVYLQMNSLKPEDTAVYYCAADRRGYRGYDYWGQGTQVTVSS	low polyreactivity
QVQLVESGGGLVQAGGSLRLSCAASGFTFNSYAMGWYRQAPGKEREFVAAISRSGSNTNYADSVKGRFTISRDNAKNTVYLEMNSLKPEDTAVYYCAARVSSVTRSGFGYWGEGTQVTVSS	high polyreactivity
QVQLVESGGGLVQAGGSLRLSCAASGRIFYINAMGWYIQAPGKERELVASITGSGGRTYYADSVKGRFTISRDNAKNTVYLQMNSLKPEDTAVYYCNADLYVGYLYYLYDYWGQGTQVTVSS	low polyreactivity
QVQLVESGGGLVQAGGSLRLSCAASGFTFYRNAMGWYRQAPGKERELVAAITWSGTSTYYADSVKGRFTISRDNAKNTVYLQMNSLKPEDTAVYYCNTVGYRGRSNSRFYYWGQGTQVTVSS	high polyreactivity
QVQLVESGGGLVQAGGSLRLSCAASGSIFTVYAMGWYRQAPGKERELVATITTGGSTNYADSVKGRFTISRDNAKTTVYLQMNSLKPEDTAVYYCAATYWSWISLRFYWGQGTQVTVSS	low polyreactivity
QVQLVESGGGLVQAGGSLRLSCGASGFTFYSYAMGWYRPARGKARELVATITKSGGNTYYADSVKGRFTISRDNAKNTVYLQMTSLKPVDTAVYYCAAATKVGRYKRKTVSYYYWCQGTQVTVSS	high polyreactivity
QVQLVESGGGLVQEGGSLRLSCAASGIIHYYYVMGWYRPAPGKERELVAAINRSGTATYYADSVKGRFTISRDNAKNTVYFQMNSLIPEDTAVYYCAADVRWRYYWGQGTQVTVSS	high polyreactivity
QVQIVESGGGLVQAGGSLRLSCAASGGTFWANAMGWYRQAPGKERELVAAITSGGSTYADSVKGRFTISRDNAKNTVYLQMNSLKPDDTAVYYCNARRYRYRPYLSGYNYWGQGTQVTVSS	high polyreactivity
QVQLVESGGGLVQAGGSLRLSCAASGFTKFYNAMGWYRQAPGKERELVAAITARGGGTYYADSVKGRFTFSRDNAKNTVYLLMNSLKPEDTAVYYCAKQPIIYWQSSRFDYWGQGTQVTVSS	low polyreactivity
QVQLVESGGGLVQAGGSLRLSCAASGRTFVGYPIGWYRQAPGKESELVATITNDAITNADSVKGRFTISRDNAKNTVYLQMNSLKPEDTAVYYCNTRYSYGTAYEQYRYKALYDYWGQGTQVTVSS	low polyreactivity
QVQLVESGGCLVQAGASLRLSCAASGSISKSYAMGWYRQAPGKEREFVAAISWRGGSTYADSVKGRFTISRDNAKNTVYLQMNSLKPEDTAVYYCAATNYGTFWGGQSERYDYWGQGSQVTVSS	low polyreactivity
QVQLLDSGGGLVQAGGSLRLSCAASGRTIYYYAMGWYRQAPGKEREFVAAIYWHGGSTYYAESVKGRFTISRDNAKNTVYFQMNSLKPEDTAVYYCAAERYDRVGFDYWGQGTQVTVSS	low polyreactivity

Sequence	polyreactivity (PSR sort gate)
QDQLVESGACLVQAGGRLRLSCAASGFTFYYNAMGWYRQAPGKEREFVAAISRSGGSTTYADSVKGRFTISRDNAMNTGFLEMNSLKPEDTAVYYCNARRYRCKSYDYWGQGTQVTVSS	high polyreactivity
QVQLVESGGGLVQAGGSLRISCAASGRILARNAMGWYRQAPGKERDLVATITWTDGSTYYADSVKGRFTISRDNAKNTVYLQMNSLKPEDTAVYYCDADLPGYWLPTVPKNYGDYWGQGTQVTVSS	low polyreactivity
QVQLVESGGGLVQAGGSLRLSCAASGSTFVNNAMGWYRQAPGKERELVAAITNGGSTNYADSVKGRFTISRDNAKNTVYLQMNSLKPEDTAVYYCAKYGDPYRHRSGTVEYGYWGQGTQVTVSS	low polyreactivity
QVQLEESGGGLVQAGGSLRLSCAASGRSFYGNAMGWYRQAPGKERELVAASSSRSSSTSYADSVKGRFTISRANAKNTVYLLMNSLKPEDTAVYYCATRYGSRTWYGYNYWGQATQVTVSS	high polyreactivity
QVQLVESGGGLVQAGGSLRLSCAASGSIFYSYAMGWYIQAHGKERELVARINYRGGSTYYADSVKGRFTISRDNAKNTVYLQMNSLKPEDTAVFYCAKRSYWSSNPRDYWGQGTKVTVSS	high polyreactivity
QVQLVESGGGLVQAGGSLRLSCAASGRIFGQYTMGWYRQAPGKERELVAAISRSSSTKYADSVKGRFTISRDNAKNTVYLQMNSLKPEDTAVYYCAAYVYYYGGRTYDYWGQGTQVTVSS	high polyreactivity
QVQLVESGGGLVQAGGSLRLICAASGRIFALYAMGWYRQAPGKEREFVATITRGASTNYADSVKGRFTISRDNAKNTVYLQMNSLKPVDTAVYYCAAAGYKAAGRVVASYYWGQGTQVTVSS	high polyreactivity
QVQLVESGGGLVQAGGSLRLSCAASGSTFAYAMGCYRQAPGKERELVAAIRTTGGSTYYADSVKGRFTISRDNAKNTVYFQMNSLNPEDSAVYYCAAVWGYGQYGSKYYYKYGYWGQGTQVTVSS	high polyreactivity
QVQLVESGGGLVQAGGSLRLSCAASGSIFDVNAMGWYRQAPGKERELVAGISWSGGSTYYADSVKGRFTISRDNAKNTVYLQMNSLKPEDTAVYYCNAEGPIYFYFYRGMDYWGQGTQVTVSS	low polyreactivity
QVQLVESGGGLVQAGGSLRLSCAASGITFYGNAMGWYRQAPGKERELVAAINWGGTGTYYADSVKGRFTISRDNAKNTVYLQMNSLKPEDTAVYYCAAEVYTWGQGTQVTVSS	low polyreactivity
QVQLVESGGGLVQAGGSLRLSCAPSGSIFPYAMGWYRQAPGKERELVAAITRSGASTYYADSVKGRFTISRDNAKNTVYLQLNSLKPEDTAVYYCAAYALRGVRYPYRVDFYYWGQGTQVTVSS	high polyreactivity
QVQLVESGGGLVQAGGSLRLSCAASGSSFPYNTMGWYRQAPGKERELVAAISSGASTNYADSVKGRFTISRDNAKNTVYLQMNSLKPEDTAVYYCAAKYNANWDFDYWGQGTQVTVSS	low polyreactivity
QVQLEEAGGGLVQAGGSLRLSCAASGRTFFENAMGWYRQAPGKEREFVAAISYNGGSTYYADSVKGRFTISRDNAKNTVYLQMNSMKPDDTAVYYCAADPNYGYDYWGQGTQVTVSS	low polyreactivity
QVQLVESGGGLVQAGGSLRLSCAASGNTFFVYAMGWYRQAPGKERELVADINWSTGSTYYADFVKGRFTLSRDNAKNTVYLQMNSLKPEDTAVYYCAAEAYYYVIFHGSWYTDDYWGQGTQVTVSS	low polyreactivity
QVQLVESGGGLVQAGGSLRLSCAASGYTFTIYAMGWYRQAPGKERELVAAITGRGGRTNYADSVKGRFTISRDNAKNTVYLQMNSLKPEDTAVYYCAKGGRSSSPRYRFDYWGQGTQVTVSS	high polyreactivity
QVQLVEAGGGLVQAGGSLRLSCAASGSTFPYYTMGGYRQAPGKDRELVAAITWRGGRTYYADSVKGRFTISRDNAKNTVYLQMNSLKPEDTAVYYCAAKQKHTQQTGWKYEYWGQGTQVTVSS	high polyreactivity
QVQLVESGGGLVQAGGSLRLSCSASGFILLAYAMGWYRQAHGKERELVAAITSGGSTHYADSVKGRFTISRDNAKNTVYLQMNSLKPEDTAVYYCANDTVFRYSGNTYGYWGQGTQVTVSS	low polyreactivity
QVQLVESGGGLVQAGGSLRLSCAASGSILYVYAMGWYRPAPGKETELVAVITSGGSTNYADSVKGRFTISRDNAKNTVYLQMNSLKPEDTAVYYCAADPYSVYGGDYWGKGTQVTVSS	low polyreactivity
QVQLVESGGGLVQAGGSLRLSCAASGSTFVYYAMGWYRQAPGKEREFVAAISTNGGSTYYADSVKGRFTISRDNAKNTVYLQMNSLKPEDTAVYYCAARWYWGQGTQVTVSS	high polyreactivity
QVQLVESGGGLVQAGGSLRLSCAASGSIFYPNAMGWYRQAPGKEREFVAAITWNGDSTYYADSVKGRFTISRDNAKNTVYLQMNSLKPEDTAVYYCNTDGQGIYSYNKDLSWISGYDYWGQGTQVTVSS	low polyreactivity
QVQLVESGGGLVQAGGSLRLSCAASGSTFLVYAMGWYRQAPGKERELVAVITYSTVRTYYADSVKGRFTISRDNAKNTVYLQMNSLKPEDTAVYYCNADKEFAVLGQGMDYWGQGTQVTVSS	low polyreactivity
